Results taken from patent publication US20240358849A1 (SUZHOU FUSE BIOSCIENCES, published 2024).
Substitutions are numbered along the chain they refer to. Names and notes keep the numbering of the source.

B1: 872-5 VH Q96L (antibody, V domains shown)
VH: EVQLVESGGGLVQPGGSLRLSCAASGFTFRGYIMSWVRQAPGKGLEWVSWISPEGSRTGYADSVKGRFTISRDNSKNTLYLQMNSLRAEDTAVYYCARLLYGTWFDYWGQGTLVTVSS
VL: DIQMTQSPSSLSASVGDRVTITCRASQSISSYLNWYQQKPGKAPKLLIYAASSLQSGVPSRFSGSGSGTDFTLTISSLQPEDFATYYCQQATLLLPTFGQGTKVEIKR
B2: 872-5 VH S52G:VL A91G/T92R (antibody, V domains shown)
VH: B1 VH with S52G, L100Q
VL: DIQMTQSPSSLSASVGDRVTITCRASQSISSYLNWYQQKPGKAPKLLIYAASSLQSGVPSRFSGSGSGTDFTLTISSLQPEDFATYYCQQGRLLLPTFGQGTKVEIK
notes: BLI per 6.1.3
B3: 872-5 VL A91G/T92R (antibody, V domains shown)
VH: B1 VH with L100Q
VL: B1 VL with A91G, T92R
notes: BLI per 6.1.3
B4: 872-5 VH S52G/Q96L (antibody, V domains shown)
VH: B1 VH with S52G
VL: B1 VL
notes: BLI per 6.1.3
B5: 872-5 VH Q96L:VL A91G/T92R (antibody, V domains shown)
VH: B1 VH
VL: B1 VL with A91G, T92R
notes: BLI per 6.1.3
B6: 872-5 VH S52G/Q96L:VL A91G/T92R (antibody, V domains shown)
VH: B1 VH with S52G
VL: B1 VL with A91G, T92R
notes: BLI per 6.1.3
B7: 872-5 VL T92R (antibody, V domains shown)
VH: B1 VH with L100Q
VL: B1 VL with T92R
notes: BLI per 6.1.3
B8: 872-5 VH S52G/Q96L/VL T92R (antibody, V domains shown)
VH: B1 VH with S52G
VL: B1 VL with T92R
notes: BLI per 6.1.3
B9: 872-5 VL A91G (antibody, V domains shown)
VH: B1 VH with L100Q
VL: B1 VL with A91G
notes: BLI per 6.1.3 (monovalent Fab-Fc)
B10: 872-5 VH S52G (antibody, V domains shown)
VH: B1 VH with S52G, L100Q
VL: B1 VL
notes: BLI per 6.1.3
B11: anti-IL-2/anti-FAP two-in-one antibody D029 (bispecific antibody, V domains shown)
VH: EVQLVESGGGLVQPGGSLRLSCAASGFTFTWSFMSWVRQAPGKGLEWVSWIGPSGSYTDYADSVKGRFTISRDNSKNTLYLQMNSLRAEDTAVYYCARSQYGRYYSPDYYFDYWGQGTLVTVSS
VL: DIQMTQSPSSLSASVGDRVTITCRASQDGGNYLNWYQQKPGKAPKLLIYGASTLYSGVPSRFSGSGSGTDFTLTISSLQPEDFATYYCQQGRTPPLTFGQGTKVEIKR
B12: D029 HV2LV1 (bispecific antibody, V domains shown)
VH: B11 VH with S32F, S56L
VL: B11 VL with D28A, G29L, N31F, G50A, T53S, Y55S
notes: also called Rev1/S55L:S32F
B13: D029 HV2LV2 (bispecific antibody, V domains shown)
VH: B11 VH with S32F, S56L
VL: B11 VL with Q27G, D28A, G29L, N31F, G50A, T53S, Y55S, P94Y, L96F
notes: also called Rev1-Q27G:P94Y:L96F/S55L:S32F
B14: D029 HV2LV4 (bispecific antibody, V domains shown)
VH: B11 VH with S32F, S56L
VL: B11 VL with Q27G, D28A, G29L, N31F, G50A, T53S, Y55S, P94Y
notes: also called Rev1-Q27G:P94Y/S55L:S32F
B15: D029 HV3LV2 (bispecific antibody, V domains shown)
VH: B11 VH with T30R, S32F, S56L
VL: B11 VL with Q27G, D28A, G29L, N31F, G50A, T53S, Y55S, P94Y, L96F
notes: also called D029L-Rev1:Q27G:P94Y:L96F/S55L:T30R:S32F
B16: D029 HV3LV4 (bispecific antibody, V domains shown)
VH: B11 VH with T30R, S32F, S56L
VL: B11 VL with Q27G, D28A, G29L, N31F, G50A, T53S, Y55S, P94Y
notes: also called D029-Rev1:Q27G:P94Y/S55L:T30R:S32F
B17: D029 HV3LV1 (bispecific antibody, V domains shown)
VH: B11 VH with T30R, S32F, S56L
VL: B11 VL with D28A, G29L, N31F, G50A, T53S, Y55S
notes: also called D029L-Rev1/S55L:T30R:S32F; Rev1/S55L:T30R:S32F
B18: D029 HV5LV1 (bispecific antibody, V domains shown)
VH: B11 VH with T30R, S32A, S56L
VL: B11 VL with D28A, G29L, N31F, G50A, T53S, Y55S
notes: also called Rev1/S55L:T30R:S32A
B19: D029HV4LV2 (bispecific antibody, V domains shown)
VH: B11 VH with T30S, W31R, S32F, S56L
VL: B11 VL with Q27G, D28A, G29L, N31F, G50A, T53S, Y55S, P94Y, L96F
notes: also called Rev1-Q27G/P94Y/L96F:H1V9
B20: D029HV6LV2 (bispecific antibody, V domains shown)
VH: B11 VH with S32A, S56L
VL: B11 VL with Q27G, D28A, G29L, N31F, G50A, T53S, Y55S, P94Y, L96F
notes: also called Rev1-Q27G:P94Y:L96F/S55L:S32A
B21: Rev1-Q27G/P94Y/L96F:H1V11 (bispecific antibody, V domains shown)
VH: B11 VH with W31Y, S32F, S56L
VL: B11 VL with Q27G, D28A, G29L, N31F, G50A, T53S, Y55S, P94Y, L96F
notes: H1V11 = D029 VH with W31Y:S32F:S55L; also called H1V11 with D029LV2
B22: Rev1-Q27G/P94Y/L96F:H1V10 (bispecific antibody, V domains shown)
VH: B11 VH with T30S, W31R, S56L
VL: B11 VL with Q27G, D28A, G29L, N31F, G50A, T53S, Y55S, P94Y, L96F
notes: H1V10 = D029 VH with T30S:W31R:S55L; also called H1V10 with D029LV2

What follows are binders tested against T1, human Fibroblast Activation Protein (FAP), soluble antigen (human, UniProt Q12884 26-760, biotinylated when immobilized on streptavidin sensors) (assay: BLI per 6.1.3, human FAP;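 also: biolayer interferometry with immobilized antigen on sensors, antibody association up to 240 s then dissociation up to 420 s, reference-subtracted, global 1:1 fit with unlinked Rmax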).
T1 construct: also called hFAP; biotinylated FAP

Row | Binder | Kd [nM] | koff [s⁻¹] | kon [M⁻¹ s⁻¹]
1 | B1 | 1.5 | 0.000794 | 542000
2 | B2 | 2.2 | 0.00148 | 673000
3 | B3 | 0.398 | 0.000411 | 1.03e+06
4 | B4 | 0.251 | 0.000161 | 645000
5 | B5 | 0.707 | 0.000571 | 812000
6 | B6 | 0.241 | 0.000178 | 737000
7 | B7 | 1.6 | 0.001 | 614000
8 | B8 | 0.087 | 7.61e-05 | 878000
9 | B9 | 0.78 | 0.00102 | 1.3e+06
10 | B10 | 2.2 | 0.00138 | 642000

Molecular target: T2, IL-2hex, mutant human IL-2 (deltaA1/T3A/F42A/Y45A/L72G/C125S) (human, UniProt P60568 22-153)
T2 chain: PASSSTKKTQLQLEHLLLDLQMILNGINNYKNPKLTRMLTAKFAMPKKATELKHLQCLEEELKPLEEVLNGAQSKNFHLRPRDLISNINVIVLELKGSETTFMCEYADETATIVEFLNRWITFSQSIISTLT
Assay: BLI per 6.1.3; column head IL-2 KD

Row | Binder | Kd [nM]
11 | B11 | 431
12 | B12 | 528
13 | B13 | 419
14 | B14 | 1590
15 | B15 | 331
16 | B16 | 1100
17 | B17 | 427
18 | B18 | 100

These binders were tested against human FAP expressed on cells (HEK 293T-hFAP-E5; ExpiCHO-hFAP) (human, UniProt Q12884 1-760) (assay: cell-based or functional assay).

Row | Binder | EC50 of HEK-Blue IL2 assay (pM) with HEK 293T-hFAP-E5; variant as masking moiety of a configuration 3 immunoconjugate [pM]
19 | B11 | 56
20 | B19 | 40
21 | B12 | 78
22 | B13 | 27
23 | B14 | 43
24 | B20 | 145
25 | B15 | 186
26 | B16 | 208
27 | B17 | 35
28 | B21 | 57
29 | B22 | 117
30 | B18 | 41

Molecular target: T2, IL-2hex, mutant human IL-2 …
Assay: cell-based or functional assay

Row | Binder | EC50 of HEK-Blue IL2 assay (pM) with HEK 293T; variant as masking moiety of a configuration 3 immunoconjugate [pM]
31 | B11 | 1510
32 | B19 | 6100
33 | B12 | 9260
34 | B13 | 6060
35 | B14 | 5140
36 | B20 | 4820
37 | B15 | 5330
38 | B16 | 4120
39 | B17 | 7380
40 | B21 | 9370
41 | B22 | 14800
42 | B18 | 5630

What follows are binders tested against T1, human Fibroblast Activation Protein … (assay: BLI per 6.1.3).

Row | Binder | Kd [nM]
43 | B12 | 2.31
44 | B13 | 1.98
45 | B14 | 1.53
46 | B15 | 3.58
47 | B16 | 1.8
48 | B17 | 1.79
49 | B18 | > 100

The binders below were run against T1, human Fibroblast Activation Protein … (assay: Affinity (nM), Table 13B).

Row | Binder | Kd [nM]
50 | B19 | 0.51
51 | B12 | 1.8
52 | B13 | 2
53 | B14 | 1.5
54 | B20 | 62
55 | B15 | 100
56 | B16 | 2.3
57 | B21 | 0.51
58 | B22 | 10
59 | B18 | 3.6

Molecular target: T2, IL-2hex, mutant human IL-2 …
Assay: Affinity (nM), Table 13B

Row | Binder | Kd [nM]
60 | B11 | 431
61 | B19 | 4500
62 | B12 | 1100
63 | B13 | 419
64 | B14 | 1590
65 | B20 | 199
66 | B15 | 100
67 | B16 | 528
68 | B17 | 237
69 | B21 | 600
70 | B22 | 700
71 | B18 | 331
